In publication PMC9915621:
Read-outs that look alike come from different tables or passages of the source.

T1: PlzA WT (Borrelia burgdorferi B31, UniProt O51675 1-261)
T1 sequence: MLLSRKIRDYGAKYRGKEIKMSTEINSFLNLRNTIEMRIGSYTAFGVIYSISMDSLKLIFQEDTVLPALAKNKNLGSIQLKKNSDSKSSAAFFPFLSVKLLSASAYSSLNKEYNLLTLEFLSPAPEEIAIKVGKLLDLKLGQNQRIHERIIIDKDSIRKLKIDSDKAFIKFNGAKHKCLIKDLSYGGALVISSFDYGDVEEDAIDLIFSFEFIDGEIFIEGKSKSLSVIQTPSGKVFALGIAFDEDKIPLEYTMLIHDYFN

T2: PlzA RD-RD (Borrelia burgdorferi B31, UniProt O51675 1-261, R145D;R149D)
T2 sequence: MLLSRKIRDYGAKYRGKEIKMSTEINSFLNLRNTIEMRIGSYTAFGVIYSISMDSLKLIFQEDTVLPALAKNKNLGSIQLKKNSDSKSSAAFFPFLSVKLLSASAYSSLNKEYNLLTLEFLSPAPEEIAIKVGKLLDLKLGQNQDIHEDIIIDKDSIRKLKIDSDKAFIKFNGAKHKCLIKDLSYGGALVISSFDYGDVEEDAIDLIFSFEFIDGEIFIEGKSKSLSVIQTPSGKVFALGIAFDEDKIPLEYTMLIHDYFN

T3: PlzA CTD (Borrelia burgdorferi B31, UniProt O51675 142-261)
T3 sequence: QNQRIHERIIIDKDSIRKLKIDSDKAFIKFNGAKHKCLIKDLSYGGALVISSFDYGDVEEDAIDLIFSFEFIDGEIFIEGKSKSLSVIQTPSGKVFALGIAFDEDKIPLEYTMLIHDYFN


Tests used:
Experiment in all cases: EMSA
[1] = target: T1, PlzA WT
[2] = target: T1, PlzA WT; remark: listed apart in the source
[3] = target: T1, PlzA WT; remark: listed apart in the source
[4] = target: T2, PlzA RD-RD
[5] = target: T1, PlzA WT; remark: listed apart in the source
[6] = target: T3, PlzA CTD
[7] = target: T1, PlzA WT; remark: listed apart in the source
[8] = target: T2, PlzA RD-RD; remark: listed apart in the source

Binder | Kd [1] [nM] | Kd [2] [nM] | Kd [3] [nM] | binding result [4] | Kd [5] [nM] | binding result [6] | Kd [7] [nM] | binding result [8]
glpFKD(-7/+35) (dsDNA) DNA 1: ATTAAATATAATTTTAATAAGGCTTTTATTAGAAAAATTAAT DNA 2: ATTAATTTTTCTAATAAAAGCCTTATTAAAATTATATTTAAT | 1330 | 1250 | 4220 | no binding | 1090 | no binding | 2810 | 
ATTAAATATAATTTTAATAAGGCTTTTATTAGAAAAATTAAT (ssDNA) [ssglpF] |  |  |  |  | 4420 |  |  | 
AUAAUUUUAAUAAGGCUUUUAUUAGAAAAAUUAAU (ssRNA) [glpFKD(UTR) RNA] |  |  | 4140 |  | 950 | no binding |  | no binding
